Values of other authors, collected in patent publication US6610516B1, “Cell culture process” (Genentech, Inc., priority 1999, dated 2003).

B1: N117Q: t-PA variant wherein asparagine at position 117 of wild-type human t-PA was substituted with glutamine (protein, UniProt P00750 36-562, looked up, variant N117Q)
Tissue-type plasminogen …: SYQVICRDEKTQMIYQQHQSWLRPVLRSNRVEYCWCNSGRAQCHSVPVKSCSEPRCFNGGTCQQALYFSDFVCQCPEGFAGKCCEIDTRATCYEDQGISYRGTWSTAESGAECTNWQSSALAQKPYSGRRPDAIRLGLGNHNYCRNPDRDSKPWCYVFKAGKYSSEFCSTPACSEGNSDCYFGNGSAYRGTHSLTESGASCLPWNSMILIGKVYTAQNPSAQALGLGKHNYCRNPDGDAKPWCHVLKNRRLTWEYCDVPSCSTCGLRQYSQPQFRIKGGLFADIASHPWQAAIFAKHRRSPGERFLCGGILISSCWILSAAHCFQERFPPHHLTVILGRTYRVVPGEEEQKFEVEKYIVHKEFDDDTYDNDIALLQLKSDSSRCAQESSVVRTVCLPPADLQLPDWTECELSGYGKHEALSPFYSERLKEAHVRLYPSSRCTSQHLLNRTVTDNMLCAGDTRSGGPQANLHDACQGDSGGPLVCLNDGRMTLVGIISWGLGCGQKDVPGVYTKVTNYLDWIRDNMRP
B2: TNK t-PA: t-PA variant: glycosylation site added at position 103, removed at 117, positions 296-299 replaced by AAAA (protein, UniProt P00750 36-562, looked up, variant T103N N117Q K296A H297A R298A R299A)
Tissue-type plasminogen …: SYQVICRDEKTQMIYQQHQSWLRPVLRSNRVEYCWCNSGRAQCHSVPVKSCSEPRCFNGGTCQQALYFSDFVCQCPEGFAGKCCEIDTRATCYEDQGISYRGNWSTAESGAECTNWQSSALAQKPYSGRRPDAIRLGLGNHNYCRNPDRDSKPWCYVFKAGKYSSEFCSTPACSEGNSDCYFGNGSAYRGTHSLTESGASCLPWNSMILIGKVYTAQNPSAQALGLGKHNYCRNPDGDAKPWCHVLKNRRLTWEYCDVPSCSTCGLRQYSQPQFRIKGGLFADIASHPWQAAIFAAAAASPGERFLCGGILISSCWILSAAHCFQERFPPHHLTVILGRTYRVVPGEEEQKFEVEKYIVHKEFDDDTYDNDIALLQLKSDSSRCAQESSVVRTVCLPPADLQLPDWTECELSGYGKHEALSPFYSERLKEAHVRLYPSSRCTSQHLLNRTVTDNMLCAGDTRSGGPQANLHDACQGDSGGPLVCLNDGRMTLVGIISWGLGCGQKDVPGVYTKVTNYLDWIRDNMRP

Experiments:
fibrin = conditions: Keyt et al. 1994

Row | Molecule | Clearance rate versus wild-type human t-PA (Hotchkiss et al., Lau et al.) | Circulatory half-life versus wild-type human t-PA (Keyt et al. 1994) | Fibrin specificity versus wild-type human t-PA (fibrin)
1 | B1 | about two-fold slower clearance rate | – | –
2 | B2 | – | increased circulatory half-life | markedly better fibrin specificity
